Laboratory results as given in patent publication US7732178B2, “Laccase enzymes and their uses” (AB Enzymes Oy, priority 2004, dated 2010).

Experiments:
[1] = Specific activity towards di-methoxy-phenol (DMP); assay type: biochemical; conditions: 25 mM MES buffer, pH 5.5
Protocol: (§1) Specific activities of the purified T. arenaria and C. thermophilum laccases were determined towards different laccase substrates.

[2] = Specific activity towards guaiacol; assay type: biochemical; conditions: 25 mM MES buffer, pH 5.5
Protocol: as §1

[3] = Specific activity towards ABTS; assay type: biochemical; conditions: 25 mM succinate buffer pH 4.5, 25° C.
Protocol: The activity assay was carried out in accordance with the method developed by Niku-Paavola et al. (1988). The sample was diluted with 0.025 M succinate buffer, pH 4.5. […] The activity is expressed as nano katals.
as §1

[4] = Isoelectric focusing (pI); assay type: physicochemical; conditions: pH range 3-9
In short: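 Purified Thielavia arenaria and Chaetomium thermophilum laccases resolved by isoelectric focusing over pH 3-9. pI read from focused band position.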

[5] = Stain removal, grass soiling; design: key to Grass L* / Grass a* / Grass b*: CIE L*a*b* color coordinates from reflectance; conditions: for Grass L* / Grass a* / Grass b*: 60 min, pH 6; for removal of grass soiling with the mediator: CtLcc1 at 60° C., TaLcc2 at 50° C.
Protocol: (§2) Laccases CtLcc1, TaLcc2, TaLcc4 and Denilite II Base (Example 7) were tested for their ability to remove stains. The following artificially soiled test cloths were used: grass soiling (Art.164, EMPA Testmaterialen, Germany), tea soiling (Art. 167, EMPA Testmaterialen, Germany). The fabric was cut in 5.8×5.8 cm swatches. Laccase treatments were performed in LP-2 Launder Ometer as follows. About 5 g of soiled fabrics were loaded into 1.2 liter containers containing 150 ml Mc Ilvaine's citrate phosphate buffer pH 6 and the containers were temperated. Enzyme with or without the mediator (methyl syringate, DeniLite II Assist, Novozymes) was added as laccase activity units (Example 7). Enzyme was dosed 200 nkat/g and the mediator 10 mg/g on the weight of fabric, except at 40° C. dosages of 20 nkat/g and 2 mg/g were also used. The Launder Ometer was run at 40, 50 or 60° C. and pH 6 for 60 min. After that the swatches were carefully rinsed under running water and in shake flasks containing warm water and dried in the air.
(§3) The stain removal effect was evaluated by measuring the colour as reflectance values using L*a*b* color space coordinates (Example 7). The colour of the swatches was measured before and after the laccase treatment.

Decolorization of dyes = assay: Decolorization of dyes; design: key to Decolorization of Cibacron Brilliant Red 3B-P, Time 30 min / Decolorization of Cibacron Brilliant Red 3B-P, Time 60 min: −: no visually detectable change; +: visually detectable fading of the colour; ++: considerable fading of the colour; +++: complete/almost complete decolorization; conditions: for Decolorization of Cibacron Brilliant Red 3B-P, Time 30 min / Decolorization of Cibacron Brilliant Red 3B-P, Time 60 min: dye 5 mg/50 ml, enzyme 100 nkat/50 ml, 50° C., pH 6; for decolorization of Cibacron Brilliant Red 3B-P: in the presence of the mediator
Protocol: The recombinant laccases CtLcc1, TaLcc2 and TaLcc4, derived from Trichoderma strains (Example 7) were tested for their ability to decolorize different dyes in the presence of the methyl syringate mediator (Example 7) or without it. The experiments were carried out in 100 ml shake flasks containing 50 ml of dye dissolved in citrate phosphate buffer pH 6. Dye concentration 5 mg/50 ml was used. Enzyme was dosed 100 nkat per 50 ml and the mediator 5 mg per 50 ml. Control samples contained only dye solution. The shake flasks were incubated at 50° C. for 30, 60 and 120 minutes. Samples of 3.5 ml were taken in test tubes for visual evaluation.

[6] = Stain removal, tea soiling; design: key to Tea L* / Tea a* / Tea b*: CIE L*a*b* color coordinates from reflectance; conditions: for Tea L* / Tea a* / Tea b*: 60 min, pH 6; for removal of tea soiling with the mediator: CtLcc1 at 60° C., TaLcc2 at 50° C.
Protocol: as §2, §3

[7] = 40° C., enzyme 20 nkat/g + mediator 2 mg/g (Mediator only: 0 nkat/g)
[8] = 40° C., enzyme 200 nkat/g + mediator 10 mg/g (Mediator only: 0 nkat/g)
[9] = 40° C., enzyme 200 nkat/g, mediator 0 mg/g
[10] = 60° C., enzyme 200 nkat/g + mediator 10 mg/g (Mediator only: 0 nkat/g)
[11] = 60° C., enzyme 200 nkat/g, mediator 0 mg/g
[12] = 40° C., enzyme 200 nkat/g + mediator 10 mg/g (Mediator only: 0 nkat/g), RF5571
[13] = 40° C., enzyme 200 nkat/g + mediator 10 mg/g (Mediator only: 0 nkat/g), RF5573
[14] = 50° C., enzyme 200 nkat/g + mediator 10 mg/g (Mediator only: 0 nkat/g)

B1: CtLcc1: Chaetomium thermophilum ALKO 4265 laccase, SEQ ID NO: 47, produced in Trichoderma reesei (protein)
chain: MKFLTYATALLGALTAVVGAIPTRSGTKKKYIRDGPGPCHTPSNRACWAPGFDINTDYEVNTPNTGVTRNYTLTLTEEDNWTGPDGVVKEKIMLVNGKTLGPTIEANWGDWIEVKVINNLLTNGTSIHWHGIHQKGSNLHDGANGVTECPIPPNGGQRTYRFRAQQYGTSWYHSHFSAQYGNGIVGPIVIHGPASLPYDIDLGPFPLTDYYYKSADELVRHTQNNGPPFSDNVLFNGTGVHPQTGHGQYAKVTLTPGKRHRLRIINMSTENHFQVSLVGHQFTVIAADMVPVHSYTTDSLFLAVGQRYDVTIDASQTPGNYWFNVTFGGGFACGGSFNPNPAAIFHYEGAPDALPTDPGVPPRDHNCLDTLDLVPVVPRNVQVNQFVKKPENTLPVELSLGGTPLFVWKVNGSAIDVDWGNPVLQYVMDRNTSYRQADNIVEVNGVNQWTYWLIENDPNGAFSLPHPMHLHGHDFLIVGRSPDVPPGSNQRYNFDPATDIYRLRGQNPTRRDVAMLPAGGWLLLAFLTDNPGAWLFHCHIAWHVSGGLSVDFLERPNDLRNSILQHDKDEFNRVCNEWRTYWPNSPHPKIDSGLKHRWVEESEWLVR
modifications: Chaetomium thermophilum ALKO4265; (1)..(607) Deduced amino acid sequence of Chaetomium thermophilum ALKO4265 CtLcc1
- Specific activity on DMP [1]: 290 nkat/mg
- Specific activity on guaiacol [2]: 85 nkat/mg
- Specific activity on ABTS [3]: 705 nkat/mg
- pI [4]: 4.0-4.3
- Grass L* [5, 7]: 79.94
- Grass a* [5, 7]: −1.20
- Grass b* [5, 7]: 16.17
- Grass L* [5, 8]: 79.74
- Grass a* [5, 8]: 0.17
- Grass b* [5, 8]: 16.48
- Grass L* [5, 9]: 80.17
- Grass a* [5, 9]: −4.14
- Grass b* [5, 9]: 17.45
- Grass L* [5, 10]: 79.92
- Grass a* [5, 10]: −1.15
- Grass b* [5, 10]: 18.55
- Grass L* [5, 11]: 79.04
- Grass a* [5, 11]: −3.69
- Grass b* [5, 11]: 18.12
- removal of grass soiling with the mediator [5]: effective
- Decolorization of Cibacron Brilliant Red 3B-P, Time 30 min (Decolorization of dyes; mediator 0 mg/50 ml): −
- Decolorization of Cibacron Brilliant Red 3B-P, Time 60 min (Decolorization of dyes; mediator 0 mg/50 ml): −
- Decolorization of Cibacron Brilliant Red 3B-P, Time 30 min (Decolorization of dyes; mediator 5 mg/50 ml): +
- Decolorization of Cibacron Brilliant Red 3B-P, Time 60 min (Decolorization of dyes; mediator 5 mg/50 ml): +
- decolorization of Cibacron Brilliant Red 3B-P (Decolorization of dyes): partly decolorized
- Tea L* [6, 7]: 76.34
- Tea a* [6, 7]: 5.10
- Tea b* [6, 7]: 23.89
- Tea L* [6, 8]: 77.70
- Tea a* [6, 8]: 4.26
- Tea b* [6, 8]: 24.50
- Tea L* [6, 9]: 76.22
- Tea a* [6, 9]: 5.37
- Tea b* [6, 9]: 22.68
- Tea L* [6, 10]: 79.76
- Tea a* [6, 10]: 3.52
- Tea b* [6, 10]: 22.16
- Tea L* [6, 11]: 77.10
- Tea a* [6, 11]: 4.84
- Tea b* [6, 11]: 21.10
- removal of tea soiling with the mediator [6]: effective

B2: TaLcc2: Thielavia arenaria ALKO 4197 laccase, SEQ ID NO: 41, produced in Trichoderma reesei (protein)
chain: MLTETLKSRNMLQSILALLATALGSSAFAIPELPEVSLQPRQACENTATSRQCWGDLSIDTNYYEVLPSTGRPPQEYWLSVVEGPCAPDGYNRTCMTFNGTVPGPTLFADWGDELVIHVTNNMVNNGTAIHWHGIRMLNNTLNDGVPGVTQCAIAPGESMTYRFNVTQYGSTWYHSHFSLQYAEGLFGGMILRGPSTANWDEDLGVLFLQDWSHVEAFTRWHEAKAGFPPSLDGGLINGTNTFDCSTLSPTDPKCTGNGKKFETVFEPGKKYLIRLINVAIDGVFQFSIDGHSLTVIATDLVPIVPYTTDSVQITIGQRYDIIVEANATPGNYWMRADWVTACVTNDHPEHMTGIVRYDASSIDPPTSESNVTKTSSCLGEPNEKTIPHLSLDVTNIGGTNVEELSFDTTSGDYFQWTLNTSSLVLDWGNPTMARIFNGDAIFPTEYNVVAVNKTGTGPEWTVLVIQDQSNLPIAHPIHLHGHDFWVLAAEEGVFNGNISSFNTRNPARRDVATLPGRGYLAIAFQIDNPGTWLTHCHIAWHASQGLSLEFVESQSEIVTDEVSRGVFNDVCASWRAHDPLWEQEDSGI
modifications: Thielavia arenaria ALKO4197; (1)..(589) Deduced amino acid sequence of Thielavia arenaria ALKO4197 TaLacc2
- Specific activity on DMP [1]: 75 nkat/mg
- Specific activity on guaiacol [2]: 40 nkat/mg
- Specific activity on ABTS [3]: 360 nkat/mg
- pI [4]: 3.5
- Grass L* [5, 7]: 79.25
- Grass a* [5, 7]: −2.14
- Grass b* [5, 7]: 16.41
- Grass L* [5, 12]: 79.24
- Grass a* [5, 12]: −0.31
- Grass b* [5, 12]: 16.72
- Grass L* [5, 13]: 79.19
- Grass a* [5, 13]: −0.26
- Grass b* [5, 13]: 16.99
- Grass L* [5, 9]: 80.01
- Grass a* [5, 9]: −4.90
- Grass b* [5, 9]: 17.63
- Grass L* [5, 14]: 79.50
- Grass a* [5, 14]: −1.15
- Grass b* [5, 14]: 17.94
- removal of grass soiling with the mediator [5]: effective
- Decolorization of Cibacron Brilliant Red 3B-P, Time 30 min (Decolorization of dyes; Table 24, mediator 0 mg/50 ml): −
- Decolorization of Cibacron Brilliant Red 3B-P, Time 60 min (Decolorization of dyes; Table 24, mediator 0 mg/50 ml): −
- Decolorization of Cibacron Brilliant Red 3B-P, Time 30 min (Decolorization of dyes; Table 24, mediator 5 mg/50 ml): +
- Decolorization of Cibacron Brilliant Red 3B-P, Time 60 min (Decolorization of dyes; Table 24, mediator 5 mg/50 ml): +
- decolorization of Cibacron Brilliant Red 3B-P (Decolorization of dyes): partly decolorized
- Tea L* [6, 7]: 75.61
- Tea a* [6, 7]: 5.24
- Tea b* [6, 7]: 23.66
- Tea L* [6, 12]: 77.28
- Tea a* [6, 12]: 4.36
- Tea b* [6, 12]: 24.32
- Tea L* [6, 13]: 77.04
- Tea a* [6, 13]: 4.41
- Tea b* [6, 13]: 24.36
- Tea L* [6, 9]: 76.09
- Tea a* [6, 9]: 5.37
- Tea b* [6, 9]: 22.59
- Tea L* [6, 14]: 77.73
- Tea a* [6, 14]: 3.99
- Tea b* [6, 14]: 22.89
- removal of tea soiling with the mediator [6]: effective
